We go through 35 sequences from the supplement of paper PMC12764529.

± gives the half width of the 95% confidence interval.

The nature of data set [1]: folding stability dG unfold from trypsin proteolysis; higher = more stable. In a few lines:
(§1)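 Only designs with AlphaFold2 dimer inter-PAE above 15 were retained; each was a mini-protein under 80 residues with no cysteine, in a PA-tagged cDNA display construct. After digestion with trypsin and chymotrypsin and sequencing, K50 was inferred by Bayesian fitting of counts, and unfolding free energy was derived per protease or combined against a sequence-predicted unfolded-state K50 and a shared folded-state K50.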

Data set [2] is described as follows: folding stability dG unfold from chymotrypsin proteolysis; higher = more stable. In a few lines: as §1
A short description of data set [3]: folding stability dG unfold (combined trypsin and chymotrypsin); higher = more stable. In a few lines:
as §1

On to “SAGGDWVPIEFTIMVPAEELQEGKPPTAEDIVEELFPPNFNVDIDVQQFPGNGYVYATVKIWVPPGMPSAGG [r13_862_TrROS]”, for which the “folding stability dG unfold” value is 2.36 ± 0.19 kcal/mol in data set [1], 2.46 ± 0.098 kcal/mol in data set [2] and 2.4 ± 0.21 kcal/mol in data set [3].

Consider “SAGGDYVKIDFTVMIPTPEQAEEMAEEIKNFFRFMGIKEVKIKVQRNPNNGMYYVTVDIEIRMPPGAVSAGG [r19_92_TrROS]”, for which the “folding stability dG unfold” value in data set [1] is 3.34 ± 0.2 kcal/mol; in data set [2], 5.12 ± 0.1 kcal/mol; in data set [3], 4.82 ± 0.17 kcal/mol.

Consider “SAGGEEEILRQIREAAKKGEEVTIVFPKGMSIEELKKLIEEELGVEVEEIKVEKNENGELTVTIKVKSAGGS [r16_318_TrROS_Hall]”, for which the “folding stability dG unfold” value in data set [1] amounted to 4.33 ± 0.24 kcal/mol; in data set [2], 2.99 ± 0.11 kcal/mol; in data set [3], 4.07 ± 0.26 kcal/mol.

On to “SAGGEEELRKAAEIAAAPPLEIEPVLETFTVETEEGPRVVLVISPVVRFPGDGVLIPNPVLVIPAEELSAGG [r19_11_TrMRF]”, for which the “folding stability dG unfold” value in data set [1] stood at 0.861 ± 0.052 kcal/mol; in data set [2] it was 0.301 ± 0.11 kcal/mol; in data set [3] it was 0.699 ± 0.11 kcal/mol.

Turning to “SAGGEEKVITKEETITVPPDAGTITISSNEVIKDPNSSYTYYVKESKTVSRDPNSNVYTITLKIKVEKSAGG [r13_574_JUSTAS]”, the “folding stability dG unfold” value in data set [1] is -0.0992 ± 0.12 kcal/mol; in data set [2], 0.917 ± 0.43 kcal/mol; in data set [3] it was 0.647 ± 0.33 kcal/mol.

Turning to “SAGGEELIKELLDKLPPDVKEATIEIEVDGKKVTLTVNEDGEVTLEVIDPETKEKKTFKIKNGKIEPVSAGG [r13_803_TrROS_Hall]”, the “folding stability dG unfold” value came out at 2.46 ± 0.28 kcal/mol in data set [1], 3.19 ± 0.079 kcal/mol in data set [2] and 2.97 ± 0.28 kcal/mol in data set [3].

On to “SAGGEETVTLELELEFEPGMTEEELEEKARELAEALAEELGLEVEVEVRVERDEDGRVRVTVEVRVKSAGGS [r16_279_TrROS_Hall]”, for which the figures for the “folding stability dG unfold” value in data set [1], in data set [2] and in data set [3] were 2.94 ± 0.076 kcal/mol, 2.06 ± 0.051 kcal/mol and 2.56 ± 0.086 kcal/mol, respectively.

For the sequence “SAGGEGEPFRITPDEIQRIFNELAQDHGFNVSISEIQVPGDEVRITISIQHDGGTQSVRLPFRIEKDDSAGG [r13_652_TrROS]”, the “folding stability dG unfold” value in data set [1] is 0.427 ± 0.2 kcal/mol; in data set [2], 0.191 ± 0.21 kcal/mol; in data set [3], 0.37 ± 0.21 kcal/mol.

On to “SAGGEIEIVVETPEDLEKAKELAEELAKALEEAGLEIEEVKVELVEETVVNEDGEEKKRYVLKITFPSAGGS [r16_591_TrROS_Hall]”, for which the “folding stability dG unfold” value is 2.46 ± 0.1 kcal/mol in data set [1], 3.24 ± 0.086 kcal/mol in data set [2] and 2.97 ± 0.14 kcal/mol in data set [3].

As for “SAGGEIKPGQTVRIRITVYNLETGEEKTIEVEVPAGKTLEEVLAELFDNLSEEERKNLVVRIEIEPVSAGGS [r16_321_TrROS_Hall]”, the figures for the “folding stability dG unfold” value in data set [1], in data set [2] and in data set [3] were 4.38 ± 0.15 kcal/mol, 5.02 ± 0.12 kcal/mol and 4.9 ± 0.26 kcal/mol, respectively.

As for “SAGGEISPEDIKELEIYPIPPEDAQKNGYIMIEIKGPGGKPIAQIMIPVRVPKVKDKDGKPMDLEDMNSAGG [r13_864_TrROS]”, the “folding stability dG unfold” value in data set [1] stood at 1.13 ± 0.044 kcal/mol; in data set [2], 1.6 ± 0.07 kcal/mol; in data set [3], 1.32 ± 0.22 kcal/mol.

As to “SAGGEKEYVEVTLEIEIEIELEPGESAEEIARKLAEELGAEITEVRVERLPDGTVKITVTVRVKLPPSAGGS [r8_292_TrROS_Hall]”, the figures for the “folding stability dG unfold” value in data set [1], in data set [2] and in data set [3] were 3.3 ± 0.29 kcal/mol, 2.58 ± 0.2 kcal/mol and 2.98 ± 0.35 kcal/mol, respectively.

Regarding “SAGGEKIEELLKELLEKLEIKPGEKVEIEIEFELEDGYRIKLKITVTYNEETGEVEIKVEIVEIEKVSAGGS [r16_634_TrROS_Hall]”, the “folding stability dG unfold” value was determined as 2.96 ± 0.12 kcal/mol in data set [1], 4.39 ± 0.17 kcal/mol in data set [2] and 4.22 ± 0.19 kcal/mol in data set [3].

On to “SAGGEKKPVKVKIEVESFKLPNVLVLKAKVYLPATGKWYEAIVIEGPTKTLVVIKFPDGSSLVLELNSAGGS [r16_657_TrMRF]”, for which the figures for the “folding stability dG unfold” value in data set [1], in data set [2] and in data set [3] were 2.97 ± 0.17 kcal/mol, 4.12 ± 0.12 kcal/mol and 3.9 ± 0.31 kcal/mol, respectively.

Consider “SAGGEKPKEVEIEEVVVKNEETGEEVRFFRIRDKETDEWYVLAVVRNKDGEEKVVKMSAEEAKKLLESAGGS [r8_421_TrROS_Hall]”, for which the “folding stability dG unfold” value in data set [1] worked out at 3.13 ± 0.065 kcal/mol; in data set [2], 3.7 ± 0.044 kcal/mol; in data set [3] it was 3.59 ± 0.14 kcal/mol.

In the case of “SAGGEKVTVTVTTETKTVTVTVYKAPAPKFKVTEITLELDENGNLRLTIKLENGETLEFDSLEDLLAALSAG [r5_618_TrROS_Hall]”, the “folding stability dG unfold” value worked out at 2.77 ± 0.079 kcal/mol in data set [1], 3.17 ± 0.15 kcal/mol in data set [2] and 2.73 ± 0.3 kcal/mol in data set [3].

As to “SAGGELKLLFNFPSKEEAEEFAEALKKAYPNFEVEVEYDPETGLFYLTLKPKEIPPLSPEELEKLLESAGGS [r16_674_TrMRF]”, the figures for the “folding stability dG unfold” value in data set [1], in data set [2] and in data set [3] were 2.96 ± 0.085 kcal/mol, 4.87 ± 0.056 kcal/mol and 4.7 ± 0.071 kcal/mol, respectively.

On to “SAGGELVLLIRVTPERIEIRLLPKEALEGLELEAPPGERLLLVELEPPPPEEEEREERRREEREELEESAGG [r13_74_TrROS_Hall]”, for which the entries for the “folding stability dG unfold” value in data set [1], in data set [2] and in data set [3] were 1.34 ± 0.13 kcal/mol, 1.4 ± 0.23 kcal/mol and 1.32 ± 0.41 kcal/mol, respectively.

With “SAGGEMVTIRVRAPDPEKLIEALREEFPEGLTIRPFPRPTPDGYEVLIVVPAERPEELLEAVERAIGSAGGS [r16_43_TrMRF]”, the “folding stability dG unfold” value was 2.01 ± 0.075 kcal/mol in data set [1], 2.17 ± 0.022 kcal/mol in data set [2] and 2.13 ± 0.068 kcal/mol in data set [3].

In the case of “SAGGEPMKIRIEIYRMKRKKDPKDGKEKWDMRPVPEYEIPFPPGETLLDILDKLPLPPGYMIKRISIESAGG [r13_716_TrROS]”, the “folding stability dG unfold” value in data set [1] was 2.28 ± 0.097 kcal/mol; in data set [2], 2.07 ± 0.12 kcal/mol; in data set [3], 2.13 ± 0.32 kcal/mol.

On to “SAGGEPPPVRVSFSVEEVTVGAGPVFVRRVVTYDPAEGRVSEFVEVFERGRGGLLGRSSRTVPAEELASAGG [r13_772_TrMRF]”, for which the “folding stability dG unfold” value in data set [1] stood at 4.08 ± 0.15 kcal/mol; in data set [2], 4.7 ± 0.13 kcal/mol; in data set [3], 4.44 ± 0.16 kcal/mol.

Take “SAGGEPVKFIPPGWKITLTTPDGRPLTFTLPANATPEDFKSLELPGDHELEFVEFLPDGTILVRSPKSAGGS [r16_103_TrMRF]”: the entries for the “folding stability dG unfold” value in data set [1], in data set [2] and in data set [3] were 0.948 ± 0.088 kcal/mol, 1.2 ± 0.18 kcal/mol and 1.12 ± 0.11 kcal/mol, respectively.

On to “SAGGERLTLEELEELLKNLPPGVEEVTITLKLEVEVRTEVRLNEDGSLETRTETRVTTELTLTLPKESAGGS [r16_708_TrROS_Hall]”, for which the “folding stability dG unfold” value in data set [1] stood at 2.5 ± 0.34 kcal/mol; in data set [2], 4.01 ± 0.4 kcal/mol; in data set [3], 3.46 ± 0.25 kcal/mol.

“SAGGETKTLTIKFYDPKTGKLVAEVTITYTPEKVTVTIRFADGTTETVEMTAEELLAKLPPGAVIVPSAGGS [r16_543_TrROS_Hall]”: the “folding stability dG unfold” value in data set [1] amounted to 3.79 ± 0.11 kcal/mol; in data set [2], 4.46 ± 0.22 kcal/mol; in data set [3], 4.31 ± 0.16 kcal/mol.

In the case of “SAGGETLTVTVLIKNKDEKNKYYKVEVKVTVEKNENGEKTLTIEMKITDKNGNKKTIKVNLKDIKIIDSAGG [r13_787_TrROS_Hall]”, the “folding stability dG unfold” value in data set [1] turned out to be 2.52 ± 0.26 kcal/mol; in data set [2], 4.33 ± 0.24 kcal/mol; in data set [3] it was 3.69 ± 0.32 kcal/mol.

Turning to “SAGGETRTFMFPFKPGMPLEEIIEELIDVLQKKGKDYPIEFKPIEPDPNGYMLFMATVTNNKITIFWSAGGS [r8_7_TrROS]”, the figures for the “folding stability dG unfold” value in data set [1], in data set [2] and in data set [3] were 2.22 ± 0.05 kcal/mol, 3.03 ± 0.083 kcal/mol and 2.83 ± 0.17 kcal/mol, respectively.

As for “SAGGETVTLTLKVETLEELEALAKKLAEETGEEVTIEVIGPDGKKYTFKTPEELKNIPGATVKITIKKSAGG [r13_620_TrROS_Hall]”, the “folding stability dG unfold” value in data set [1] came to 2.19 ± 0.13 kcal/mol; in data set [2], 2.96 ± 0.041 kcal/mol; in data set [3] it was 2.87 ± 0.15 kcal/mol.

Consider “SAGGEVELKIKIEIRVELNEDGELKVEIKIEIELRPKPEPELTEEERLAEELRKKYPGLSKEELEALLSAGG [r13_136_TrROS_Hall]”, for which the “folding stability dG unfold” value in data set [1] is 2.87 ± 0.32 kcal/mol; in data set [2] it was 1.63 ± 0.13 kcal/mol; in data set [3] it was 2.32 ± 0.27 kcal/mol.

As to “SAGGEVKPGDKVKVRLRLRVRLEDGEEVEVELEFVEVEVVPLSEEEKEKLEELKKKKPEVDPKNKELLSAGG [r13_330_TrROS_Hall]”, the “folding stability dG unfold” value in data set [1] is 1.61 ± 0.13 kcal/mol; in data set [2] it was 2.24 ± 0.11 kcal/mol; in data set [3] it was 1.81 ± 0.3 kcal/mol.

As to “SAGGEVKVVKAEVTTLPDGRKLVRLLLEVGGKFYPVLIDVHPDGVRITFPDGKTATIKLEDLKNLTWSAGGS [r16_593_TrMRF]”, the “folding stability dG unfold” value in data set [1] came out at 2.64 ± 0.094 kcal/mol; in data set [2], 1.73 ± 0.14 kcal/mol; in data set [3], 2.15 ± 0.12 kcal/mol.

Take “SAGGEVLIDTGPSPEEALYRAYEKGGEVPVIVLEPGSRVLHIFNVRFNPIPKKVEILDEYEIPILPELSAGG [r13_309_TrMRF]”: the “folding stability dG unfold” value amounted to 1.18 ± 0.025 kcal/mol in data set [1], 1.46 ± 0.087 kcal/mol in data set [2] and 1.38 ± 0.11 kcal/mol in data set [3].

Consider “SAGGFEFEFTNPDGKKIKVEIERHPEEGYIMLKIQYGGKPVETFPPGDEFEIPPDGIDAVIMFRLPPESAGG [r13_958_TrROS]”, for which the “folding stability dG unfold” value in data set [1] was 2.88 ± 0.15 kcal/mol; in data set [2], 3.22 ± 0.12 kcal/mol; in data set [3] it was 2.91 ± 0.22 kcal/mol.

As for “SAGGFKEIKKKLGVKKEDKVILDLEVNFGKKPKFFKVEFEVDKLEEIVKELGIPKENLKIVKAVVIKESAGG [r13_681_TrMRF]”, the results for the “folding stability dG unfold” value in data set [1], in data set [2] and in data set [3] were -0.523 ± 0.31 kcal/mol, 1.16 ± 0.082 kcal/mol and 0.706 ± 0.13 kcal/mol, respectively.

For the sequence “SAGGFLEAIKNGKPVIFHVLVKHPGSGEVEEYPILVHPDKPIDLEKLIKELFPEDFEAEIFVSDFGFSAGGS [r8_127_TrMRF]”, the “folding stability dG unfold” value amounted to 1.3 ± 0.13 kcal/mol in data set [1], 2.11 ± 0.058 kcal/mol in data set [2] and 1.89 ± 0.089 kcal/mol in data set [3].

Consider “SAGGFLENLPDEVVEAALAAVLPDGSRVFVALRKGPDRPRVLIITFDANGVPRDIRELDPEEALKALEASAG [r5_73_TrMRF]”, for which the “folding stability dG unfold” value worked out at 2.48 ± 0.042 kcal/mol in data set [1], 2.75 ± 0.028 kcal/mol in data set [2] and 2.68 ± 0.034 kcal/mol in data set [3].
